# Experimental data as given in patent US20250263469A1 (HOSPITAL FOR SICK CHILDREN, published 2025).
# Positions count from the first letter of the chain named.
# B1: 4A8 IgG (antibody, V domains shown)
# VH: EVQLVESGAEVKKPGASVKVSCKVSGYTLTELSMHWVRQAPGKGLEWMGGFDPEDGETMYAQKFQGRVTMTEDTSTDTAYMELSSLRSEDTAVYYCATSTAVAGTPDLFDYYYGMDVWGQGTTVTVSS
# VL: EIVMTQSPLSSPVTLGQPASISCRSSQSLVHSDGNTYLSWLQQRPGQPPRLLIYKISNRFSGVPDRFSGSGAGTDFTLKISRVEAEDVGVYYCTQATQFPYTFGQGTKVDIK
# B2: mAb 160 (antibody, V domains shown)
# VH: QVQLVQSGAEVKKPGASVKVSCKASGYTFTGHDMHWVRQAPGQGLEWMGIINPSGGSTSYAQKFQGRVTMTRDTSTSTVYMELSSLRSEDTAVYYCARANSLRYYYGMDVWGQGTMVTVSS
# VL: DIQMTQSPSSLSASVGDRVTITCRASQSVSSWLAWYQQKPGKAPKLLIYAASSLQSGVPSRFSGSGSGTDFTLTISSLQPEDFATYYCQQGYTTPYTFGQGTKLEIKR
# B3: mAb 120 (antibody, V domains shown)
# VH: QVQLVQSGAEVKKPGASVKVSCKASGYTFTSYDINWVRQAPGQGLEWMGMIDPSGGSTSYAQKFQGRVTMTRDTSTSTVYMELSSLRSEDTAVYYCAKDFGGGTRYDYWYFDLWGRGTLVTVSS
# VL: EIVMTQSPATLSVSPGERATLSCRASQSVSSRYLAWYQQKPGQAPRLLIYGASTRATGIPARFSGSGSGTEFTLTISSLQSEDFAVYYCQQYYTTPRTFGQGTRLEIKR
# B4: mAb 52 (antibody, V domains shown)
# VH: QVQLVQSGAEVKKPGSSVKVSCKASGYTFTSYGISWVRQAPGQGLEWMGGIIPMFGTTNYAQKFQGRVTITADKSTSTAYMELSSLRSEDTAVYYCARDRGDTIDYWGQGTLVTVSS
# VL: DIQMTQSPSSLSASVGDRVTITCRASQGISNNLNWYQQKPGKAPKLLIYAASSLESGVPSRFSGSGSGTDFTLTISSLQPEDFATYYCQQGNGFPLTFGPGTKVDIKR
# B5: mAb 128 (antibody, V domains shown)
# VH: QVQLVQSGAEVKKPGASVKVSCKASGYTFTHYYMHWVRQAPGQGLEWMGIINPSSSSASYSQKFQGRVTMTRDTSTSTVYMELSSLRSEDTAVYYCARDGRYGSGSYPFDYWGQGTLVTVSS
# VL: DIQMTQSPSSLSASVGDRVTITCRASQNISRYLNWYQQKPGKAPKLLIYDASNLETGVPSRFSGSGSGTDFTLTISSLQPEDFATYYCQQANGFPPTFGQGTKLEIKR
# B6: mAb 56 (antibody, V domains shown)
# VH: QVQLVQSGAEVKKPGASVKVSCKASGYTFTSYGISWVRQAPGQGLEWMGWISAYNGNTNYAQKLQGRVTMTRDTSTSTVYMELSSLRSEDTAVYYCARDIGPIDYWGQGTLVTVSS
# VL: B5 VL with N28G, R31S, N34A, E55Q, T56S, G93S, P96S, L104V
# B7: mAb 158 (antibody, V domains shown)
# VH: QVQLVQSGAEVKKPGASVKVSCKASGYTFTGYYMHWVRQAPGQGLEWMGWINPLNGGTNFAPKFQGRVTMTRDTSTSTVYMELSSLRSEDTAVYYCARDPGGSYSNDAFDIWGQGTLVTVSS
# VL: B5 VL with N28S, T56S, G93S, P96L, Q100G, L104V, E105D
# B8: mAb 368 (antibody, V domains shown)
# VH: QVQLVQSGAEVKKPGSSVKVSCKASGYTFTSYDINWVRQAPGQGLEWMGAIMPMFGTANYAQKFQGRVTITADESTSTAYMELSSLRSEDTAVYYCARGSSGYYYGWGQGTLVTVSS
# VL: not shown
# B9: mAb 178 (antibody, V domains shown)
# VH: QVQLVQSGAEVKKPGASVKVSCKASGYTFTDYHMHWVRQAPGQGLEWMGWINPNSGGTNYAQKFQGRVTMTRDTSTSTVYMELSSLRSEDTAVYYCARDISSWYEITKFDPWGQGTLVTVSS
# VL: EIVMTQSPATLSVSPGERATLSCKASQSVSGTYLAWYQQKPGQAPRLLIYGASTRATGIPARFSGSGSGTEFTLTISSLQSEDFAVYYCLQTHSYPPTFGQGTKVEIKR
# B10: mAb 236 (antibody, V domains shown)
# VH: QVQLVQSGAEVKKPGASVKVSCKASGGTFTSYGINWVRQAPGQGLEWMGWMNPNSGNTGYAQKFQGRVTMTRDTSTSTVYMELSSLRSEDTAVYYCASRGIQLLPRGMDVWGQGTTVTVSS
# VL: not shown
# B11: mAb 192 (antibody, V domains shown)
# VH: QVQLVQSGAEVKKPGSSVKVSCKASGGTFSSYAISWVRQAPGQGLEWMGWINPNSGGANYAQKFQGRVTITADESTSTAYMELSSLRSEDTAVYYCSTYYYDSSGYSTDYWGQGTLVTVSS
# VL: DIVMTQSPLSLPVTPGEPASISCRSSQSLLHSNGYNYLDWYLQKPGQSPQLLIYAASSLQSGVPDRFSGSGSGTDFTLKISRVEAEDVGVYYCMQALQTPYTFGQGTKLEIKR
# B12: mAb 180 (antibody, V domains shown)
# VH: QVQLVQSGAEVKKPGSSVKVSCKASGYTFTSYAMHWVRQAPGQGLEWMGRISPRSGGTKYAQRFQGRVTITADESTSTAYMELSSLRSEDTAVYYCAREAVAGTHPQAGDFDLWGRGTLVTVSS
# VL: B11 VL with M94Q, A96Y, L97Y, Q98S, T99S
# B13: mAb 108 (antibody, V domains shown)
# VH: QVQLVQSGAEVKKPGASVKVSCKASGYIFSRYAIHWVRQAPGQGLEWMGWMNPISGNTDYAPNFQGRVTMTRDTSTSTVYMELSSLRSEDTAVYYCAKDGSQLAYLVEYFQHWGQGTLVTVSS
# VL: DIQMTQSPSSLSASVGDRVTITCRASQVITNNLAWYQQKPGKAPKLLIYDASTLETGVPSRFSGSGSGTDFTLTISSLQPEDFATYYCQQSYTFPYTFGQGTKVEIKR
# B14: mAb 82 (antibody, V domains shown)
# VH: QVQLVQSGAEVKKPGASVKVSCKASGGSFSTSAFYWVRQAPGQGLEWMGWINPYTGGTNYAQKFQGRVTMTRDTSTSTVYMELSSLRSEDTAVYYCARSRALYGSGSYFDYWGQGTLVTVSS
# VL: B5 VL with N28V, R31N, N34A, A91S, N92F, G93S, F94P, K103R
# B15: mAb 324 (antibody, V domains shown)
# VH: QVQLVQSGAEVKKPGASVKVSCKASGGTFNNYGISWVRQAPGQGLEWMGWMNPNSGNTGYAQKFQGRVTMTRDTSTSTVYMELSSLRSEDTAVYYCARVGDYGDYIVSPFDLWGRGTLVTVSS
# VL: B5 VL with N28S, S30T, R31T, A91S, N92Y, G93S, F94T, L104V
# B16: mAb 64 (antibody, V domains shown)
# VH: EVQLLESGGGLVQPGGSLRLSCAASGFPFSQHGMHWVRQAPGKGLEWVSAIDRSGSYIYYADSVKGRFTISRDNSKNTLYLQMNSLRAEDTAVYYCARDTYGGKVTYFDYWGQGTLVTVSS
# VL: B13 VL with V28G, T30S, N31S, N32H, T53N, S91T, T93S, F94T, Y96W
# B17: mAb 349 (antibody, V domains shown)
# VH: EVQLLESGGGLVQPGGSLRLSCAASGFTFSNYGMHWVRQAPGKGLEWVSGISSAGSITNYADSVKGRFTISRDNSKNTLYLQMNSLRAEDTAVYYCAGNHAGTTVTSEYFQHWGQGTLVTVSS
# VL: B2 VL with V29I, A50D, A51T, S53N, Q55E, S56T, G91S, Y96W, K103R
# B18: mAb 46 (antibody, V domains shown)
# VH: EVQLLESGGGLVQPGRSLRLSCAASGFTFSSYAMSWVRQAPGKGLEWVSTIYSGGSTYYADSVKGRFTISRDNSKNTLYLQMNSLRAEDTAVYYCARGDSRDAFDIWGQGTMVTVSS
# VL: B13 VL with V28S, T30S, N31S, N32W, T53N, T93S, F94T, Y96F, Q100P, E105D
# B19: mAb 254 (antibody, V domains shown)
# VH: EVQLLESGGGLVQPGGSLRLSCAASGFTFSSSAMHWVRQAPGKGLEWVSAIGTGGDTYYADSVKGRFTISRDNSKNTLYLQMNSLRAEDTAVYYCAREGDGYNFYFDYWGQGTLVTVSS
# VL: DIQMTQSPSSLSASVGDRVTITCRASQGISSYLAWYQQKPGKAPKLLIYDASSLQIGVPSRFSGSGSGTDFTLTISSLQPEDFATYYCLQSYSTPPWTFGQGTKVEIKR
# Molecular target: T1, SARS-CoV-2 Spike on pseudotyped virus (PsV) (SARS-CoV-2, UniProt P0DTC2 14-1273)
# Assay: cell-based or functional assay
row,Binder,"Median IC50, SARS-CoV-2 PsV neutralization"
1,B1,> 100 g/mL as printed (µg/mL meant)

# Molecular target: T1, SARS-CoV-2 Spike on pseudotyped virus …
# Assay: cell-based or functional assay
# Remark: another data set of the same source
row,Binder,"Median IC50, SARS-CoV-2 PsV neutralization [µg/mL]"
1,B2,> 50
2,B3,> 50
3,B4,0.61
4,B5,> 50
5,B6,> 50
6,B7,> 50
7,B8,> 50
8,B9,> 50
9,B10,0.057
10,B11,> 50
11,B12,> 50
12,B13,> 50
13,B14,1.6
14,B15,0.78
15,B16,> 50
16,B17,> 50
17,B18,2.1
18,B19,> 50

# Molecular target: T1, SARS-CoV-2 Spike on pseudotyped virus …
# Assay: cell-based or functional assay
# Remark: another data set of the same source
row,Binder,"IC50 SARS-CoV2 PsV, IgG [µg/mL]"
1,B2,> 50
2,B3,> 50
3,B4,0.55
4,B5,> 50
5,B6,> 50
6,B7,> 50
7,B8,> 50
8,B9,> 50
9,B10,0.057
10,B11,> 50
11,B12,> 50
12,B13,> 50
13,B14,1.6
14,B15,0.78
15,B16,> 50
16,B17,> 50
17,B18,2.1
18,B19,> 50
